# From patent US20220235380
# B1: Alkaline Phosphatase, Germ Cell (ALPG), expressed on engineered K562 cells (protein)
# chain: IIPVEEENPDFWNRQAAEALGAAKKLQPAQTAAKNLIIFLGDGMGVSTVTAARILKGQKKDKLGPETFLAMDRFPYVALSKTYSVDKHVPDSGATATAYLCGVKGNFQTIGLSAAARFNQCNTTRGNEVISVMNRAKKAGKSVGVVTTTRVQHASPAGAYAHTVNRNWYSDADVPASARQEGCQDIATQLISNMDIDVILGGGRKYMFPMGTPDPEYPDDYSQGGTRLDGKNLVQEWLAKHQGARYVWNRTELLQASLDPSVTHLMGLFEPGDMKYEIHRDSTLDPSLMEMTEAALLLLSRNPRGFFLFVEGGRIDHGHHESRAYRALTETIMFDDAIERAGQLTSEEDTLSLVTADHSHVFSFGGYPLRGSSIFGLAPGKARDRKAYTVLLYGNGPGYVLKDGARPDVTESESGSPEYRQQSAVPLDGETHAGEDVAVFARGPQAHLVHGVQEQTFIAHVMAFAACLEPYTACDLAPRAGTTD
# Target: ALPG/P priming receptor encoded by the LG1 + FAS/PTPN2 shRNA circuits AB-1013, AB-1014 and AB-1015
# Sequence (chain, as listed by the source): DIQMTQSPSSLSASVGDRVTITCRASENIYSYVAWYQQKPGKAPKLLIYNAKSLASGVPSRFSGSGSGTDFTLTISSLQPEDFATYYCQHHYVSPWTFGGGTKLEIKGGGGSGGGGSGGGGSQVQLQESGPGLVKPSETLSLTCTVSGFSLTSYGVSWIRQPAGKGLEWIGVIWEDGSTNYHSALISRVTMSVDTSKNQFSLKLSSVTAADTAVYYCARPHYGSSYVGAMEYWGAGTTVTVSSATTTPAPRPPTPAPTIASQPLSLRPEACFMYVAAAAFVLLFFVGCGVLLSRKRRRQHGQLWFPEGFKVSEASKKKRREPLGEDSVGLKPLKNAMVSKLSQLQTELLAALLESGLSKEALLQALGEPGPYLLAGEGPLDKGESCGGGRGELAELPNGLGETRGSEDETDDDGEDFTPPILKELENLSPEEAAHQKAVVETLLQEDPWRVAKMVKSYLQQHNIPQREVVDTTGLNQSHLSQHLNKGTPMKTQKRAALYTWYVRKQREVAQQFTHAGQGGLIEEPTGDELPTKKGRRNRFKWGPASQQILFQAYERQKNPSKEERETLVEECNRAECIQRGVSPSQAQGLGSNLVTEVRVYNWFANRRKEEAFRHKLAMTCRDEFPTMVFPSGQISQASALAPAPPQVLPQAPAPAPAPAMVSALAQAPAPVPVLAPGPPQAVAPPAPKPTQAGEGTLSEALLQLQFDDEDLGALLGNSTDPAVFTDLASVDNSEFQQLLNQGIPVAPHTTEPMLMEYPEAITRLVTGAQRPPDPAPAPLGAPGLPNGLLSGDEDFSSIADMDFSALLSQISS
protein,measurement,value
B1,"% CAR Conversion, time to peak",reached a peak after around 100 hours of stimulation with the PrimeR antigen
